The text below walks through data of PMC10485164, “Sequence-specific targeting of Caenorhabditis elegans C-Ala to the D-loop of tRNAAla”.

Substitutions are numbered along the chain they refer to.

Broadly, the Kd is the free concentration of one partner at which half of the binding sites on the other are occupied at equilibrium, for simple one-to-one binding.

Series [1] has as its system Ce-C-Alam (C-Ala of mitochondrial AlaRS) (Caenorhabditis elegans). The series is described as follows: EMSA. Particulars: 5 mM Mg2+; EMSA: 20 mM Hepes pH 7.5, 20 mM KCl, 5 mM MgCl2, 2 mM DTT, 10 min on ice, 0.1 uM ligand; 5% native PAGE in 0.5x TBE at 4 C; protein 0.125-32 uM. On the technique in general: In EMSA bound probe runs differently from free probe, usually more slowly.

Series [2] concerns CeAlaRSm (mitochondrial AlaRS) (Caenorhabditis elegans). The series is described as follows: EMSA. Particulars: 5 mM Mg2+; EMSA: 20 mM Hepes pH 7.5, 20 mM KCl, 5 mM MgCl2, 2 mM DTT, 10 min on ice, 0.1 uM ligand; 5% native PAGE in 0.5x TBE at 4 C; protein 0.125-32 uM.
Series [3] concerns CeAlaRSm(ΔC) (Caenorhabditis elegans). The series is described as follows: EMSA. Particulars: 5 mM Mg2+; EMSA: 20 mM Hepes pH 7.5, 20 mM KCl, 5 mM MgCl2, 2 mM DTT, 10 min on ice, 0.1 uM ligand; 5% native PAGE in 0.5x TBE at 4 C; protein 0.125-32 uM.
Series [4] deals with T1, Ce-C-Alac (C-Ala of cytoplasmic AlaRS) (Caenorhabditis elegans, UniProt O01541 757-968).
T1 sequence: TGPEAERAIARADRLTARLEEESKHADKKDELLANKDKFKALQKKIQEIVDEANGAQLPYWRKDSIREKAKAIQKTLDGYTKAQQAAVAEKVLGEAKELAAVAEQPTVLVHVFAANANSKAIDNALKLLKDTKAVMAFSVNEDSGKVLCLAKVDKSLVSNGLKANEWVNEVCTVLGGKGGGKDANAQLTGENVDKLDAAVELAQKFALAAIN
The series is described as follows: EMSA; 5 mM Mg2+; EMSA: 20 mM Hepes pH 7.5, 20 mM KCl, 5 mM MgCl2, 2 mM DTT, 10 min on ice, 0.1 uM ligand; 5% native PAGE in 0.5x TBE at 4 C; protein 0.125-32 uM. Particulars: protein: recombinant, tags: His6 (C-terminal, pET21b), label: 5'-32P.

In series [5] the target is T2, Ce-C-Alac helical subdomain (HS) (Caenorhabditis elegans, UniProt O01541 757-858).
T2 sequence: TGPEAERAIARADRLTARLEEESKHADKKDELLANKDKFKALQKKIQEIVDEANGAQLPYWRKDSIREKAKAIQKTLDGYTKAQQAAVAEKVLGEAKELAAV
The series is described as above. Particulars: protein: recombinant, tags: His6 (C-terminal, pET21b), label: 5'-32P.

Series [6] concerns the target T3, Ce-C-Alac globular subdomain (GS) (Caenorhabditis elegans, UniProt O01541 859-968).
T3 sequence: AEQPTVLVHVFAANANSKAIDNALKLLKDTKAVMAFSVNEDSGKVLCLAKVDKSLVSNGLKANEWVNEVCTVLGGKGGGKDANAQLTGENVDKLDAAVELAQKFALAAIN
Described as above. Particulars: protein: recombinant, tags: His6 (C-terminal, pET21b), label: 5'-32P.

Series [7] deals with T1, Ce-C-Alac (C-Ala of cytoplasmic AlaRS). The description is as above. The note with it: protein: recombinant; tags: His6 (C-terminal, pET21b); label: 5'-32P; two hairpins.

For “GGGGGUAUAGCUCAGUGGUAGAGCGCUCCCUUAGCAUGGGAGAGGGCUGGGGUUCAAUUCCCCAUACCUCCACCA [CetRNAnAla]”, the binding signal (fold lower affinity than CetRNAmAla) in series [1] was 7.5.

Consider “GGGAUUUUAGUUUAGUGGUAAAAUAUAUGUUUUGCAUACAUAAGAUAAUAAUUCUACCA [DLnAla mut (CetRNAmAla with D-loop of CetRNAnAla)]”, for which the Kd in series [1] was 4000 nM; in series [2] it was 1000 nM; in series [3], more than 32000 nM.

For the molecule “GGGAUUUUAGUUUAAUAAAAAUAUAUGUUUUGCAUACAUAAGAUAAUAAUUCUACCA [CetRNAmAla]”, the Kd is 200 nM in series [1], 200 nM in series [2] and more than 32000 nM in series [3].

B1: CetRNAnAla (structured_RNA)
RNA: GGGGGUAUAGCUCAGUGGUAGAGCGCUCCCUUAGCAUGGGAGAGGGCUGGGGUUCAAUUCCCCAUACCUCCACCA
With B1, the figures for the Kd in series [4] (tRNA cloverleaf), in series [5] (tRNA cloverleaf) and in series [6] (tRNA cloverleaf) were 800 nM, 2000 nM and 500 nM, respectively.

B2: CetRNAnAla A14G15 mutant (to GA) (structured_RNA)
RNA: B1 RNA with A14G, G15A
As for B2, the Kd in series [4] (tRNA, conformation disrupted) turned out to be 10000 nM.

B3: CetRNAnAla G18G19C56 mutant (structured_RNA)
RNA: B1 RNA with G17A, G18A, C55U
Regarding B3, the Kd in series [4] (tRNA) was determined as 8000 nM.

B4: CetRNAnAla A14G15C48 mutant (structured_RNA)
RNA: B1 RNA with A14G, G15A, C47U
B4: the Kd in series [4] (tRNA) was 2000 nM.

B5: DLmAla mut (CetRNAnAla with D-loop of CetRNAmAla) (structured_RNA)
RNA: GGGGGUAUAGCUCAAUAAGAGCGCUCCCUUAGCAUGGGAGAGGGCUGGGGUUCAAUUCCCCAUACCUCCACCA
Consider B5, for which the Kd in series [4] (tRNA) came to 6500 nM.

B6: SctRNAnGly (structured_RNA)
RNA: GCGCAAGUGGUUUAGUGGUAAAAUCCAACGUUGCCAUCGUUGGGCCCCCGGUUCGAUUCCGGGCUUGCGCACCA
Consider B6, for which, in series [4] (tRNA cloverleaf), the Kd came out at 900 nM.

B7: CetRNAmAla (structured_RNA)
RNA: GGGAUUUUAGUUUAAUAAAAAUAUAUGUUUUGCAUACAUAAGAUAAUAAUUCUACCA
Regarding B7, the Kd in series [4] (tRNA) was 4500 nM.

B8: biloop AG mutant (A14G15 to CC) (structured_RNA)
RNA: GCUCCCUGGUAGAGCGCUCCCUUAGCAUGGGAG
For the molecule B8, the binding signal in series [7] is 4 fold lower affinity than WT biloop.

B9: biloop (D-arm-anticodon arm of CetRNAnAla) (structured_RNA)
RNA: B8 RNA with C5A, C6G
Consider B9, for which the figures for the Kd in series [4] (two hairpins), in series [5] (two hairpins) and in series [6] (two hairpins) were 2000 nM, 6000 ± 400 nM and 2000 ± 400 nM, respectively.

B10: minihelix (T-arm-acceptor stem of CetRNAnAla) (structured_RNA)
RNA: GGGGGUAUGGGGUUCAAUUCCCCAUACCUCCACCA
As to B10, the results for the Kd in series [5] (hairpin) and in series [6] (hairpin) were 11000 ± 100 nM and 9000 ± 200 nM, respectively.
